Biological target: T1, TOP-2 [R828C]::3xFLAG, Q23670
T1 chain: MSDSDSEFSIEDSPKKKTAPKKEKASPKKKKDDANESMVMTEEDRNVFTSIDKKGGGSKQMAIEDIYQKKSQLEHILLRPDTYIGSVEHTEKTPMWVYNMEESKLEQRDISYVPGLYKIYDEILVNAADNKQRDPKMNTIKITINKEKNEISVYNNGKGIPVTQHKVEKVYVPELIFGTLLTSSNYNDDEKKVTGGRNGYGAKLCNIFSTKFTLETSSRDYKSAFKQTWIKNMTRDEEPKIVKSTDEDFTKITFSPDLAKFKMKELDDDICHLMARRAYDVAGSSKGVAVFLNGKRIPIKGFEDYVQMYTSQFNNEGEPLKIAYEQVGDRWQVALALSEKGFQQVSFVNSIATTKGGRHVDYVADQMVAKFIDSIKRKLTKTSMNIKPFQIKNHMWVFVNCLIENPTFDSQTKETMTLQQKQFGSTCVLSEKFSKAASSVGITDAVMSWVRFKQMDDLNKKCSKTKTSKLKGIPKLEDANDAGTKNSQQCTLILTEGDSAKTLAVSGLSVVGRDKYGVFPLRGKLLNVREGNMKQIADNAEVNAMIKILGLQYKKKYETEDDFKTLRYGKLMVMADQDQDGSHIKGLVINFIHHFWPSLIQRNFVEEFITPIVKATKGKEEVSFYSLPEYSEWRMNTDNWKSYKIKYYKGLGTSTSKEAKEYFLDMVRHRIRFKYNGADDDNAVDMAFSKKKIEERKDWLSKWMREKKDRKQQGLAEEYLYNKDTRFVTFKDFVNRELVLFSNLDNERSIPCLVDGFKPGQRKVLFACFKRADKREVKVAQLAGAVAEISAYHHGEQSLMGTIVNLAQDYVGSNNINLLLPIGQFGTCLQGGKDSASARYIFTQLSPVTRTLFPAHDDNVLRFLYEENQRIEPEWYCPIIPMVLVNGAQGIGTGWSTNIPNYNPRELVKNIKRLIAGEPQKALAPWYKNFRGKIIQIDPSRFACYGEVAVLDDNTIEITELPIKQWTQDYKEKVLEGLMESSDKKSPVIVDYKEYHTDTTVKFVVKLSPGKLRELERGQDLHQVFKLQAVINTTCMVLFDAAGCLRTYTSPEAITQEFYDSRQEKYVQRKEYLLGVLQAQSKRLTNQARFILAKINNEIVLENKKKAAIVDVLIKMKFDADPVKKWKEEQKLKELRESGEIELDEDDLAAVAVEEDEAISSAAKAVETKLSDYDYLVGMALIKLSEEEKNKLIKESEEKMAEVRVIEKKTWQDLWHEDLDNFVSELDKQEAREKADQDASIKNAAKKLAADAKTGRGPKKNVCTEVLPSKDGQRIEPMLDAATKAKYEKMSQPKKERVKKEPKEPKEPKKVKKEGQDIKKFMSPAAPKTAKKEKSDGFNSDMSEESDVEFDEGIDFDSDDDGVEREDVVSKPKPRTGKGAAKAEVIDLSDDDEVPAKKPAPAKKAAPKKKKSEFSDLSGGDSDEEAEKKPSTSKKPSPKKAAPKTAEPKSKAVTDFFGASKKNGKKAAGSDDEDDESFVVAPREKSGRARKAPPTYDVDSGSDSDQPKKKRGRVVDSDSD
Assay: co-immunoprecipitation (anti-FLAG magnetic agarose beads) with anti-RFP immunoblot, band quantification
Conditions: chain shown with the change;; parent: est. 1.0; read off a plot

ratio to parent: 0.33
B1: m1; m2 TDPT-1:G117R; TOP-2:R828C (protein)
chain: MSNSDDEIQEIEAKRQKMSQEDSEVEIEILDEPEQGKLKNSSMSDEQKLHEFAIITATDEAFAQSILQDVDWDLKKALDVFYGSEAFAEARSAAVMGASSSMASSGAAVMTAEDLKRFEVSVMSWNIDGLDGRSLLTRMKAVAHIVKNVNPDILFLQEVVDRDLAPIDKLQSLYKIYYSNKGCQYYTAILVSKMFDVEKHDVIHFQNSGMYRTLQILEGSIGGLKVFLLNTHLESTREHRPQRCAQFGFCMDKVREIIAQNPGALVFFGGDLNLRDEEVSRVPDGVKDAWEAAGSDNKTKFTWDTFKNDNKQGFHGAKMRFDRLYWSGPLDKVKFTLEGRQRIRSCLCFPSDHWAINATFFA

From article PMC11261448
